Source: the supplement of paper PMC7877785
± gives the uncertainty stated by the source.

Assay: self-splicing fitness, log relative to wild type (ln ratio); higher = more splicing; Tetrahymena group I intron in knt gene, E. coli kanamycin selection, DiMSum; sequences stand for … in CUCUCU…GGAGGGAAAAGUUAUCAGGCAUGCACCUGGUAGCUAGUCUUUAAACCAAUAGAUUGCAUCGGUUUAAAAGGCAAGACCGUCAAAUUGCGGGAAAGGGGUCAACAGCCGUUCAGUACCAAGUCUCAGGGGAAACUUUGAGAUGGCCUUGCAAAGGGUAUGGUAAUAAGCUGACGGACAUGGUCCUAACCACGCAGCCAAGUCCUAAGUCAACAGAUCUUCUGUUGAUAUGGAUGCAGUUCACAGACUAAAUGUCGGUCGGGGAAGAUGUAUUCUUCUCAUAAGAUAUAGUCGGACCUCUCCUUAAUGGGAGCUAGCGGAUGAAGUGAUGCAACACUGGAGCCGCUGGGAACUAAUUUGUAUGCGAAAGUAUAUUGAUUAGUUUUGGAGUACUCGUGGUCG
Procedure, shortened: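 Pooled colonies went to amplicon sequencing on an Illumina HiSeq 2500 after six replicate transformations. The plates were LB agar with 100 μg/mL carbenicillin, 50 μM IPTG and 0.2% rhamnose, with or without 25 μg/mL kanamycin, incubated overnight at 37°C or 30°C. The E. coli BL21(DE3) library had all eight P1ex-region intron nucleotides randomised, the intron placed in the knt kanamycin-resistance gene on pET-22b(+). DiMSum fitness is the error-weighted combination of replicate fold changes, kanamycin against none, normalised to wild type.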

Sequence | self-splicing fitness (ln) (30 °C) | self-splicing fitness (ln) (37 °C)
CACUAGCAAUAUUACGUCAC | -4.12 ± 0.29 | -2.01 ± 0.21
UUGCAGCAAUAUUACGUGAA | -1.12 ± 0.069 | -0.162 ± 0.086
UCAGAGCAAUAUUACGGUCG | -2.95 ± 0.16 | -1.32 ± 0.14
AACUAGCAAUAUUACGAUUG | -2.97 ± 0.12 | -1.23 ± 0.12
UCACAGCAAUAUUACGUCGA | -0.572 ± 0.068 | -0.734 ± 0.08
CCCAAGCAAUAUUACGUGCU | -2.08 ± 0.11 | -2.6 ± 0.2
UCGAAGCAAUAUUACGGUCU | -2.6 ± 0.14 | -0.844 ± 0.13
GAAAAGCAAUAUUACGUGCA | -0.843 ± 0.073 | -0.0478 ± 0.085
UGGGAGCAAUAUUACGUCUC | -3.13 ± 0.32 | -2.93 ± 0.44
UUUCAGCAAUAUUACGGUGC | -3.27 ± 0.21 | -3.4 ± 0.39
AACAAGCAAUAUUACGGGCG | -0.896 ± 0.075 | -1.08 ± 0.089
GGAGAGCAAUAUUACGGAUU |  | -1.62 ± 0.22
ACUAAGCAAUAUUACGUCAU | -3.64 ± 0.16 | -2.28 ± 0.15
UGUCAGCAAUAUUACGUGGA | -1.92 ± 0.1 | -0.49 ± 0.11
GUCAAGCAAUAUUACGUUAA | -2.02 ± 0.12 | -1.74 ± 0.1
GCAAAGCAAUAUUACGAAAU | -2.4 ± 0.12 | -1.36 ± 0.11
ACCCAGCAAUAUUACGAAAG | -2.85 ± 0.13 | -1.47 ± 0.17
CUAAAGCAAUAUUACGUCGA |  | -1.99 ± 0.2
ACCCAGCAAUAUUACGAAUA | -2.29 ± 0.14 | -1.19 ± 0.12
AAGUAGCAAUAUUACGCGCU | -1.47 ± 0.11 | -0.822 ± 0.12
GCCCAGCAAUAUUACGAGGC | -3.64 ± 0.2 | -2.5 ± 0.22
GAGGAGCAAUAUUACGAUCU | -0.772 ± 0.12 | -0.217 ± 0.12
CGUAAGCAAUAUUACGCACU | -2.27 ± 0.24 | -1.6 ± 0.18
AUCCAGCAAUAUUACGGUUC | -4.5 ± 0.17 | -1.95 ± 0.17
AAUCAGCAAUAUUACGGUUA | -0.439 ± 0.08 | -0.408 ± 0.066
GCGUAGCAAUAUUACGAUUU | 0.253 ± 0.088 | -0.282 ± 0.09

Sequence | self-splicing fitness (ln) (30 °C) | self-splicing fitness (ln) (37 °C)
CUGAAGCAAUAUUACGGCUG | -0.126 ± 0.074 | 0.668 ± 0.11
CUUGAGCAAUAUUACGGUAC | -2.24 ± 0.2 | -2.16 ± 0.42
CAGUAGCAAUAUUACGUCAG | -0.873 ± 0.07 | 0.623 ± 0.095
CUCCAGCAAUAUUACGGCAA | -3.55 ± 0.17 | -2.71 ± 0.16
UCUUAGCAAUAUUACGGAAU | -4.47 ± 0.26 | -1.93 ± 0.16
CUUGAGCAAUAUUACGUGAC | -2.55 ± 0.24 | -1.08 ± 0.19
CUUGAGCAAUAUUACGAGGA | -3.08 ± 0.38 | 
CUUAAGCAAUAUUACGGGUA | -2.7 ± 0.22 | -2.75 ± 0.38
AUAAAGCAAUAUUACGGGCG | -0.028 ± 0.097 | -0.567 ± 0.1
GAUAAGCAAUAUUACGUCUG | -2.51 ± 0.24 | -1.57 ± 0.25
GGCGAGCAAUAUUACGUUGU | -3.25 ± 0.18 | -2.48 ± 0.25
UCAAAGCAAUAUUACGGCGU | -0.917 ± 0.065 | -0.201 ± 0.086
CCGCAGCAAUAUUACGAGAG | -2.62 ± 0.084 | -1.56 ± 0.082
CAGCAGCAAUAUUACGUAUU | -3.51 ± 0.25 | -2.23 ± 0.22
CUGUAGCAAUAUUACGACGA | -1.4 ± 0.19 | -0.118 ± 0.15
GACCAGCAAUAUUACGGUCU | -3.61 ± 0.17 | -3.16 ± 0.21
UUUCAGCAAUAUUACGUAGU | -3.95 ± 0.24 | -2.63 ± 0.18
GACCAGCAAUAUUACGAGUC | -3.82 ± 0.23 | -2.06 ± 0.18
GAUAAGCAAUAUUACGGCAG | -3.5 ± 0.32 | -2.51 ± 0.33
AUUGAGCAAUAUUACGCAGA |  | -2.45 ± 0.41
GGGUAGCAAUAUUACGAAUG | -2.18 ± 0.25 | -1.32 ± 0.4
AGCAAGCAAUAUUACGGCAC | -0.889 ± 0.08 | -0.371 ± 0.11
UGACAGCAAUAUUACGCAGC | -3.89 ± 0.33 | -2.43 ± 0.27
AUCAAGCAAUAUUACGCCGC | -2.23 ± 0.34 | 
GCAAAGCAAUAUUACGCUUC | -4.15 ± 0.33 | -2.39 ± 0.33
ACGAAGCAAUAUUACGAGCA | -2.84 ± 0.14 | -1.32 ± 0.12

Sequence | self-splicing fitness (ln) (30 °C) | self-splicing fitness (ln) (37 °C)
AUCGAGCAAUAUUACGCUAU | -3.38 ± 0.29 | -3.08 ± 0.24
UUCGAGCAAUAUUACGUUCU | -1.47 ± 0.15 | -0.345 ± 0.16
AUAGAGCAAUAUUACGUUUU | -1.43 ± 0.084 | -1.3 ± 0.14
CGCCAGCAAUAUUACGCUGU | -3.38 ± 0.29 | -2.69 ± 0.39
AGUCAGCAAUAUUACGGUGG | -3.01 ± 0.26 | -1.79 ± 0.24
CCCGAGCAAUAUUACGUAUU | -3.8 ± 0.17 | -3.48 ± 0.24
GAGGAGCAAUAUUACGAACC | -2.84 ± 0.42 | -1.19 ± 0.38
GGCGAGCAAUAUUACGUCGA | -2.43 ± 0.23 | -0.47 ± 0.15
CUGGAGCAAUAUUACGCAGU |  | -1.99 ± 0.43
GUGGAGCAAUAUUACGAGGA | -3.96 ± 0.31 | -1.75 ± 0.19
GACAAGCAAUAUUACGGCUU | -0.995 ± 0.068 | -0.505 ± 0.1
GGUGAGCAAUAUUACGCUGG | -2.87 ± 0.19 | -1.12 ± 0.16
AUUCAGCAAUAUUACGUUCC | -1.54 ± 0.14 | -1.5 ± 0.21
ACAGAGCAAUAUUACGAGGC | -3.42 ± 0.38 | -2.15 ± 0.25
UUCCAGCAAUAUUACGAGCU | -3.64 ± 0.23 | -2.71 ± 0.27
CGAAAGCAAUAUUACGUACA | -1.25 ± 0.14 | -1.23 ± 0.15
UUCCAGCAAUAUUACGUAAA | -0.607 ± 0.086 | 0.616 ± 0.12
GAAUAGCAAUAUUACGUCGU | -2 ± 0.12 | -1.35 ± 0.14
UUUAAGCAAUAUUACGUCAU | -3.03 ± 0.22 | -1.08 ± 0.15
GAAUAGCAAUAUUACGACGC | 0.293 ± 0.13 | -0.0831 ± 0.16
GAGUAGCAAUAUUACGGAAG | -3.65 ± 0.23 | -2.71 ± 0.26
CUCCAGCAAUAUUACGUCGG | -3.14 ± 0.15 | -2.36 ± 0.15
GUCCAGCAAUAUUACGUUCC | -1.46 ± 0.083 | -0.198 ± 0.1
GUCCAGCAAUAUUACGCUAA | -0.5 ± 0.11 | 0.303 ± 0.11
UUGGAGCAAUAUUACGCACA | -0.871 ± 0.32 | 
UUUAAGCAAUAUUACGCAAG | -1.43 ± 0.2 | -0.275 ± 0.18
